Data published in patent US12295987B2, “Method of using a GIP/GLP1 co-agonist for diabetes” (Eli Lilly and Company, priority 2018, dated 2025).

Molecular target: T1, human gastric inhibitory peptide receptor (hGIPR) (Homo sapiens, UniProt P48546)
T1 construct: expressed in transfected cells; host or cells: HEK293
T1 sequence (P48546 22-466): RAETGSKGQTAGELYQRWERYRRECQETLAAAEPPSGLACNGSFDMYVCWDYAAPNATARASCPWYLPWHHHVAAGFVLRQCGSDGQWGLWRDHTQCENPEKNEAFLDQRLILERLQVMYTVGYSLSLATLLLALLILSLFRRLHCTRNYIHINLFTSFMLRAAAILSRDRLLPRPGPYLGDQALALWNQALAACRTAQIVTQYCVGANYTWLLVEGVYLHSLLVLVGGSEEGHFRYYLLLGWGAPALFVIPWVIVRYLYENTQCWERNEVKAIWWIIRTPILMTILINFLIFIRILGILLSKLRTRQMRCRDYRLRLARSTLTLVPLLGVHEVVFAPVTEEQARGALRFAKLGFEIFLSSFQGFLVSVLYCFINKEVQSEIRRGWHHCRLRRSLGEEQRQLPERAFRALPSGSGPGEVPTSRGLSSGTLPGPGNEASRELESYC
Experiment: cAMP pharmacological functional assay in presence of 0.1% casein, hGIPR
Type: cell-based
Settings: ratio of hGIPR to hGLP1R cAMP EC50 ratios

Substance | [hGIPR/hGLP1R] EC50 Ratio
Y-Aib-EGT-αMeF(2F)-TSDYSI-αMeL-LDEK((2-[2-(2-Amino-ethoxy)-ethoxy]-acetyl)2-(γGlu)-CO—(CH2)18—CO2H)AQ-Aib-EFIEYLIEGG-NH2 (YXEGTXTSDYSIXLDEKAQXEFIEYLIEGG; Aib, αMe residues, C20 diacid lipidation, C-amide; (2)..(2) Xaa at position 2 is Aib; (6)..(6) Xaa at position 6 is alpha-methyl-Phe(2F); (13)..(13) Xaa at position 13 is alpha-methyl-Leu; MOD_RES (17)..(17) Lys at position 17 is chemically modified by conjugation of the epsilon-amino group of the Lys side chain with (2-[2-(2-amino-ethoxy)-ethoxy]-acetyl)2-(gamma-Glu)-CO-(CH2)18- CO2H; (20)..(20) Xaa at position 20 is Aib; MOD_RES (30)..(30) Gly a) [Peptide 103] | 3.07
Y-Aib-EGT-αMeF(2F)-TSDYSI-αMeL-LDEK((2-[2-(2-Amino-ethoxy)-ethoxy]-acetyl)2-(γGlu)-CO—(CH2)18—CO2H)AQ-Aib-EFIPYLIEGGPSSGAPPPS-NH2 (YXEGTXTSDYSIXLDEKAQXEFIPYLIEGGPSSGAPPPS; Aib, αMeF(2F), αMeL; acylated lysine C20 diacid; amide; (2)..(2) Xaa at position 2 is Aib; (6)..(6) Xaa at position 6 is alpha-methyl-Phe(2F); (13)..(13) Xaa at position 13 is alpha-methyl-Leu; MOD_RES (17)..(17) Lys at position 17 is chemically modified by conjugation of the epsilon-amino group of the Lys side chain with (2-[2-(2-amino-ethoxy)-ethoxy]-acetyl)2-(gamma-Glu)-CO-(CH2)18- CO2H; (20)..(20) Xaa at position 20 is Aib; MOD_RES (39)..(39) Ser a) [Peptide 151] | 9.42
Y-Aib-EGTFTSDY-(D-Ser)-ILLDKK((2-[2-(2-Amino-ethoxy)-ethoxy]-acetyl)2-(γGlu)-CO—(CH2)18—CO2H)AQ-Aib-AFIEYLIEGGPSSGAPPPS-NH2 (YXEGTFTSDYXILLDKKAQXAFIEYLIEGGPSSGAPPPS; Aib, D-Ser, lipidated Lys, C-terminal amide; (2)..(2) Xaa at position 2 is Aib; (11)..(11) Xaa at position 11 is D-Ser; MOD_RES (17)..(17) Lys at position 17 is chemically modified by conjugation of the epsilon-amino group of the Lys side chain with (2-[2-(2-amino-ethoxy)-ethoxy]-acetyl)2-(gamma-Glu)-CO-(CH2)18- CO2H; (20)..(20) Xaa at position 20 is Aib; MOD_RES (39)..(39) Ser at position 39 is amidated) [Peptide 81] | 5.92
Y-Aib-EGTFTSDYSILLDKK((2-[2-(2-Amino-ethoxy)-ethoxy]-acetyl)2-(γGlu)-CO—(CH2)18—CO2H)AQ-Aib-AFIEYLI-(D-Glu)-GGPSSGAPPPS-NH2 (YXEGTFTSDYSILLDKKAQXAFIEYLIXGGPSSGAPPPS; Aib, D-Glu; K lipidated C20 diacid-γGlu-AEEA2; C-terminal amide; (2)..(2) Xaa at position 2 is Aib; MOD_RES (17)..(17) Lys at position 17 is chemically modified by conjugation of the epsilon-amino group of the Lys side chain with (2-[2-(2-amino-ethoxy)-ethoxy]-acetyl)2-(gamma-Glu)-CO-(CH2)18- CO2H; (20)..(20) Xaa at position 20 is Aib; (28)..(28) Xaa at position 28 is D-Glu; MOD_RES (39)..(39) Ser at position 39 is amidated) [Peptide 83] | 4.84
Y-Aib-EGT-αMeF(2F)-TSDYSI-αMeL-LDEK((2-[2-(2-Amino-ethoxy)-ethoxy]-acetyl)2-(εK)-CO—(CH2)18—CO2H)AQ-Aib-EFI-(D-Glu)-YLIEGGPSSGAPPPS-NH2 (YXEGTXTSDYSIXLDEKAQXEFIXYLIEGGPSSGAPPPS; Aib, αMeF(2F), αMeL, D-Glu; εK-lipidated K; amide; (2)..(2) Xaa at position 2 is Aib; (6)..(6) Xaa at position 6 is alpha-methyl-Phe(2F); (13)..(13) Xaa at position 13 is alpha-methyl-Leu; MOD_RES (17)..(17) Lys at position 17 is chemically modified by conjugation of the epsilon-amino group of the Lys side chain with (2-[2-(2-amino-ethoxy)-ethoxy]-acetyl)2-(epsilon-Lys)-CO-(CH2)18- CO2H; (20)..(20) Xaa at position 20 is Aib; (24)..(24) Xaa at posi) [Peptide 216] | 3.75
Y-Aib-EGT-αMeF(2F)-TSDHSI-αMeL-LDEK((2-[2-(2-Amino-ethoxy)-ethoxy]-acetyl)2-(εK)-CO—(CH2)16—CO2H)AQ-Aib-TFI-(D-Glu)-YLIEGGPSSGAPPPS-NH2 (YXEGTXTSDHSIXLDEKAQXTFIXYLIEGGPSSGAPPPS; Aib, αMeF(2F), αMeL, D-Glu; εK-lipidated K; amide; (2)..(2) Xaa at position 2 is Aib; (6)..(6) Xaa at position 6 is alpha-methyl-Phe(2F); (13)..(13) Xaa at position 13 is alpha-methyl-Leu; MOD_RES (17)..(17) Lys at position 17 is chemically modified by conjugation of the epsilon-amino group of the Lys side chain with (2-[2-(2-amino-ethoxy)-ethoxy]-acetyl)2-(epsilon-Lys)-CO-(CH2)16- CO2H; (20)..(20) Xaa at position 20 is Aib; (24)..(24) Xaa at posi) [Peptide 176] | 4.71
Y-Aib-EGT-αMeF(2F)-TSDLSI-αMeL-LDEK((2-[2-(2-Amino-ethoxy)-ethoxy]-acetyl)2-(γGlu)-CO—(CH2)18—CO2H)AQ-Aib-EFI-(D-Glu)-YLIEGGPSSGAPPPS-NH2 (YXEGTXTSDLSIXLDEKAQXEFIXYLIEGGPSSGAPPPS; Aib, αMeF(2F), αMeL, D-Glu; lipidated K; amide; (2)..(2) Xaa at position 2 is Aib; (6)..(6) Xaa at position 6 is alpha-methyl-Phe(2F); (13)..(13) Xaa at position 13 is alpha-methyl-Leu; MOD_RES (17)..(17) Lys at position 17 is chemically modified by conjugation of the epsilon-amino group of the Lys side chain with (2-[2-(2-amino-ethoxy)-ethoxy]-acetyl)2-(gamma-Glu)-CO-(CH2)18- CO2H; (20)..(20) Xaa at position 20 is Aib; (24)..(24) Xaa at positi) [Peptide 183] | 3.68
